{
  "source": "paper PMC6163455",
  "about": "(Biomolecules, 2018)",
  "system": "CHO-K1 cells",
  "assay": "cell fractionation and anti-β-lactamase immunoblotting",
  "format": "cell-based, Chinese hamster",
  "details": "8 µM, 1.5 h at 37 °C, digitonin cytosol extraction, 4 µg aliquots, anti-β-lactamase antibody, Figure S1",
  "protocol": "Supplementary Information\nSupplementary Figures: β-Lactamase Tools for Establishing Cell Internalization and Cytosolic\nDelivery of Cell Penetrating Peptides\nFigure S1. Verification of cell penetrating peptides (CPP)-mediated β-lactamase internalization by immunoblotting. MW: molecular weight.\nAliquots (4 µg) of cytosolic and membrane soluble CHO-K1 cell fractions from β-lactamase assays were separated by sodium dodecyl sulfate–polyacrylamide gel electrophoresis (SDS-PAGE) through a 4-12% (w/v) polyacrylamide Bis-Tris gel, transferred to polyvinylidene difluoride (PVDF) membrane, and immunoblotted. β-lactamase conjugated (e.g., 1746_SpyT/SpyC_BLA) or fused (e.g., 1746_BLA recombinant) to 1746c27 and 1746 Phylomer cell penetrating peptides (CPPs) was detected in the cytosolic fraction to varying extents, while TAT-conjugated β-lactamase was predominantly detected in the membrane fraction of cell lysates. […]\ndelivered into the cytosol by the 1746 CPP. Internalization of unconjugated SpyC_BLA protein was not detected, either on its own (SpyC_BLA (no CPP)) or in the presence of 1746c27 peptide (1746c27, SpyC_BLA), illustrating there is no bystander uptake effect. […]\nAliquots of extracted fractions (4 µg) were separated through a 4–12% Bis-Tris gel (Invitrogen, Carlsbad, CA, USA). Protein expression in the fractions was detected using monoclonal anti-β- […]",
  "data": [
    {"molecule": "1746_BLA: recombinant fusion of phylomer CPP 1746 with β-lactamase (protein) MASPLKPKKPKTQEKKKKQPPKPKKPKTQEKKKKQPPKPKRASSGSHHHHHHGATLEVLFQGPGGSHPETLVKVKDAEDQLGARVGYIELDLNSGKILESFRPEERFPMMSTFKVLLCGAVLSRIDAGQEQLGRRIHYSQNDLVEYSPVTEKHLTDGMTVRELCSAAITMSDNTAANLLLTTIGGPKELTAFLHNMGDHVTRLDRWEPELNEAIPNDERDTTTPAAMATTLRKLLTGELLTLASRQQLIDWMEADKVAGPLLRSALPAGWFIADKSGAGERGSRGIIAALGPDGKPSRIVVIYTTGSQATMDERNRQIAEIGASLIKHWQLGSASGTTGATSG", "values": [
      {"measurement": "β-lactamase detected in cytosolic and membrane cell fractions (immunoblot)", "result": "very strong signal in the cytosolic fractions"}
    ]}
  ]
}
